Numbering of substitutions follows the chain as printed.
What was measured:
[1] = biological target: T1, recombinant human factor B (human, UniProt P00751 26-764, biotinylated (EZ-link) in the Octet assay only; sites not stated); assay: dilution ELISA, factor B coated at 25 ng/well [upper panel]
T1 construct: also called purified factor B protein

[2] = biological target: T1, recombinant human factor B; assay: dilution ELISA, factor B coated at 50 ng/well [upper panel]
[3] = biological target: T1, recombinant human factor B; assay: dilution ELISA, factor B coated at 25 ng/well [lower panel]
Protocol: (§1) Next, the ability of the cloned VH and Vκ sequences to bind factor B was assayed. The cloned VH- and Vκ-regions were expressed in bacteria as Fab′ fragments, purified, and tested for binding to factor B in a dilution ELISA. FIG. 4 compares factor B binding of the cloned Fab′ TA003 to that of a Fab′ derived from mAb1379. As expected, both the cloned Fab′ and murine Fab produced binding curves that were dependent on both antibody and antigen concentration.

[4] = biological target: T1, recombinant human factor B; assay: dilution ELISA, factor B coated at 50 ng/well [lower panel]
Protocol: as §1

[5] = biological target: T1, recombinant human factor B; assay: dilution ELISA, factor B coated at 100 ng/well [lower panel]
Protocol: as §1

[6] = biological target: T1, recombinant human factor B; assay: BLI (ForteBio Octet), biotinylated human factor B on neutravidin sensors, Fab' at 1e-7 M; KD = Kdissoc/Kassoc
Protocol: (§2) Binding kinetics of the Fab′ fragments were analyzed using a FortéBio® Octet® biosensor (FortéBio, Inc., Menlo Park, Calif.). Recombinant human factor B was biotinylated with the EZ-link biotinylation system (Pierce Biotechnology, Rockford, Ill.) according to the manufacturer's instructions. The antigen was then coupled to neutravidin-coated sensors (FortéBio, Inc., Menlo Park, Calif.) according to the manufacturer's instructions. Fab′ binding was then monitored in real time using bio-layer interferometry analysis and software provided by the manufacturer. Antigen binding affinities were calculated for the tested Fab′ fragments based on the measured association (“Kassoc”) and dissociation (“Kdissoc”) constants. Preferably humaneered antibodies or antibody fragments with equilibrium dissociation constants the same or […] than that of the reference antibody (i.e., mAb 1379) or antibody fragment (i.e., TA10).
(§3) Fully humaneered Fab′ fragments were isolated by colony lift binding assays and confirmed as factor B binders by ELISA. Humaneered Fab′ fragments showing strong positive signals by ELISA were purified and further characterized in comparison to the reference Fab′ fragment TA10, which has murine V-region sequences from mAb 1379. Kinetics of Fab′ fragment binding to recombinant human factor B were analyzed with the FortéBio® Octet® system by bio-layer interferometry, providing real time label-free monitoring of protein-protein interactions. Measured association (Kassoc) and dissociation (Kdissoc) constants, and calculated equilibrium dissociation constants (KD=Kdissoc/Kassoc) (i.e., binding affinity), are shown in Table 1.

[7] = biological target: T1, recombinant human factor B; assay: BLI (ForteBio Octet), biotinylated human factor B on neutravidin sensors, Fab' at 1e-7 M
Protocol: as §2, §3

T1 sequence (P00751 26-764): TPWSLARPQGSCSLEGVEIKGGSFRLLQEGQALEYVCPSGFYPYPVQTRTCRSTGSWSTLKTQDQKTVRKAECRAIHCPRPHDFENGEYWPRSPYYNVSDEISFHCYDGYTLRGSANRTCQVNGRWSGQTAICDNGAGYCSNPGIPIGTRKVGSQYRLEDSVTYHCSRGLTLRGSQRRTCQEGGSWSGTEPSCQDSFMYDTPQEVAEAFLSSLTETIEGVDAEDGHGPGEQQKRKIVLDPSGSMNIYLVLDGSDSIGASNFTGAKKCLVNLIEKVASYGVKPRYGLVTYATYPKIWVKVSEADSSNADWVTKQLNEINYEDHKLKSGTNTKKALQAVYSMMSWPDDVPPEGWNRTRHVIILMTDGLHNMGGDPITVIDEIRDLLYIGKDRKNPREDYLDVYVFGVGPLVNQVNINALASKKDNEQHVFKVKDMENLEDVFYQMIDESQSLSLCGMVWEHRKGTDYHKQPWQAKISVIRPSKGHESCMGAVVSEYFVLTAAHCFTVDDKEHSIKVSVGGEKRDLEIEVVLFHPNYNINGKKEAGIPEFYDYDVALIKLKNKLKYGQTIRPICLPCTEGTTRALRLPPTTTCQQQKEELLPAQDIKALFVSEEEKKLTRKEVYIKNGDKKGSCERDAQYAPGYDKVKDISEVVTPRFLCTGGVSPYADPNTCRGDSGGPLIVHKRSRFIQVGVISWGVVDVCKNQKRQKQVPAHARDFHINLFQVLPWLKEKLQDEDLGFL

B1: cloned Fab' TA003 (Fab, V domains shown)
VH: EVQLQQSGPELVKPGASVKIPCKASGYTFTDYNMDWVKQSHGKSLEWIGDINPNNGGTIYNQKFKGKATLTVDKSSSTAYMELRSLTSEDTAVYYCARGYYSNSAWFAYWGQGTLVTVSA
VL: DIVMSQSPSSLAVSAGEKVTMSCKSSQSLLNSRTRKNYLAWYQQKPGQSPKLLIYWASTRESGVPDRFTGSGSGTDFTLTISSVQAEDLAVYYCKQSYNLPWTFGGGTKLEIKR
notes: No sentence ties the name TA003 to these numbers directly; also called the cloned Fab'; purified Fab' protein (cloned V-regions from the hybridoma producing mAb 1379)
EC50 (read off the curve) [1]: ~40 nM
EC50 (read off the curve) [2]: ~20 nM

B2: Fab' derived from mAb 1379 by papain digestion (Fab, V domains shown)
VH: B1 VH
VL: B1 VL
notes: Papain fragment of the murine IgG1 kappa hybridoma antibody mAb 1379 (ATCC PTA-6230); also called murine Fab
EC50 (read off the curve) [3]: ~30 nM
EC50 (read off the curve) [4]: ~10 nM
EC50 (read off the curve) [5]: ~8 nM

B3: TA103-2 Fab' (Fab, V domains shown)
VH: QVQLVQSGAEVKKPGASVKVSCKASGYSFTDYYMTWVRQAPGQGLEWMGWINPNSGGTKYAQKFQGRVTMTRDTSISTAYMELSRLRSDDTAVYYCARGYYANSAWFAYWGQGTLVTVSS
VL: DIVMTQSPDSLAVSLGERATINCKSSQSLLNSRTSKNYLAWYQQKPGQPPKLLIYWASTRESGVPDRFSGSGSGTDFTLTISSLQAEDVAVYYCKQVYNLPWTFGQGTKLEIK
notes: Humaneered Fab' expressed in E. coli
Kd [6]: 3.73 nM
koff [7]: 0.0028 s⁻¹

B4: TA101-1 Fab' (Fab, V domains shown)
VH: B3 VH
VL: B3 VL with R33S
notes: as for B3
Kd [6]: 4.53 nM
koff [7]: 0.00233 s⁻¹

B5: TA102-4 Fab' (Fab, V domains shown)
VH: B3 VH
VL: B3 VL with L29V, T34N, S35K
notes: as for B3
Kd [6]: 5.4 nM
koff [7]: 0.00437 s⁻¹
kon [7]: 810000 M⁻¹ s⁻¹

B6: TA10 reference Fab' (Fab, V domains shown)
VH: B1 VH with A120S
VL: DIVMSQSPSSLAVSAGEKVTMSCKSSQSLLNSRTRKNYLAWYQQKPGQSPKLLIYWASTRESGVPDRFTGSGSGTDFTLTISSVQAEDLAVYYCKQSYNLPWTFGQGTKLEIK
Kd [6]: 6.55 nM
koff [7]: 0.00296 s⁻¹
